Assay results: the supplement of paper PMC10065799, “High-throughput profiling of sequence recognition by tyrosine kinases and SH2 domains using bacterial peptide display” (eLife, 2023)

Legend:
c-Src SH2 = experiment: SH2 binding enrichment of the phosphorylated peptide, bacterial display (enrichment ratio); higher = better substrate or ligand; peptides without Tyr show the background
SHP2-C SH2 = experiment: as above
Grb2 SH2 = Grb2 SH2 (UniProt P62993); experiment: as above
MERTK = MERTK (UniProt Q12866); experiment: phosphorylation enrichment, bacterial display (enrichment ratio); higher = better substrate or ligand; peptides without Tyr show the background
EPHB1 = EPHB1 (UniProt P54762); experiment: as above
c-Src = experiment: as above
Fes = Fes (UniProt P07332); experiment: as above
Hck = Hck (UniProt P08631); experiment: as above
Fyn = Fyn (UniProt P06241); experiment: as above
Fer (mouse) = experiment: as above
EPHB2 = EPHB2 (UniProt P29323); experiment: as above
FGFR3 = FGFR3 (UniProt P22607); experiment: as above
AncSZ = experiment: as above
c-Abl (mouse) = experiment: as above
FGFR1 = FGFR1 (UniProt P11362); experiment: as above
Jak2 = Jak2 (UniProt O60674); experiment: as above
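Throughout, for SH2 binding enrichment of the phosphorylated peptide, bacterial display: peptide library displayed on the E. coli surface as eCPX fusions, selected cells deep-sequenced, score is each peptide's frequency after selection divided by its frequency in the input.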
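Throughout, for phosphorylation enrichment, bacterial display: 11-residue human phosphosite peptides and single-mutation variants displayed on the E. coli surface, counted by deep sequencing, each peptide's frequency after selection divided by its frequency in the unselected input library; frequency after pTyr selection over input frequency; kinase dosed for 20-30% of maximal phosphorylation in three min.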

Fes, sequence (P07332 whole entry, looked up): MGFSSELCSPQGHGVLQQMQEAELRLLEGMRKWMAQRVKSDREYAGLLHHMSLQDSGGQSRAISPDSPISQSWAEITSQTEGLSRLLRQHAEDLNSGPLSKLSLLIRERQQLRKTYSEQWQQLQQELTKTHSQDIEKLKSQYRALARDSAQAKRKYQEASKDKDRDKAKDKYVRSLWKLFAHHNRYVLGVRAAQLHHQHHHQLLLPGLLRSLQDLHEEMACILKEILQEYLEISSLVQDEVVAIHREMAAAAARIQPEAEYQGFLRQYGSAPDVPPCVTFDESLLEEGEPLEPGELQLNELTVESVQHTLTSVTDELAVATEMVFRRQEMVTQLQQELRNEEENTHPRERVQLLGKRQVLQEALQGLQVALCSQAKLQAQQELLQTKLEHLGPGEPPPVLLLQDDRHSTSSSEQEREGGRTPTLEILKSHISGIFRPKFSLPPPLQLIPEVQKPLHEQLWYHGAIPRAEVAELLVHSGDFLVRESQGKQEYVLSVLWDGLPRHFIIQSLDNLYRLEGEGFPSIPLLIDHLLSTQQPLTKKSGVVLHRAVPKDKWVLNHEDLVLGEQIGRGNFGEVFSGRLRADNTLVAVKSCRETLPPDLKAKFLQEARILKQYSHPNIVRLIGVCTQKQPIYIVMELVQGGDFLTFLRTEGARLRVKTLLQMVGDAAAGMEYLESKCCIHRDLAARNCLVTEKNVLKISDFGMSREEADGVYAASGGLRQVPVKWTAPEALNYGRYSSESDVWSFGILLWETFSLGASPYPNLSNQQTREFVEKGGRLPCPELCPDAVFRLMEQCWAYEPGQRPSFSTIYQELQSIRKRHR
EPHB2, sequence (P29323 whole entry, looked up): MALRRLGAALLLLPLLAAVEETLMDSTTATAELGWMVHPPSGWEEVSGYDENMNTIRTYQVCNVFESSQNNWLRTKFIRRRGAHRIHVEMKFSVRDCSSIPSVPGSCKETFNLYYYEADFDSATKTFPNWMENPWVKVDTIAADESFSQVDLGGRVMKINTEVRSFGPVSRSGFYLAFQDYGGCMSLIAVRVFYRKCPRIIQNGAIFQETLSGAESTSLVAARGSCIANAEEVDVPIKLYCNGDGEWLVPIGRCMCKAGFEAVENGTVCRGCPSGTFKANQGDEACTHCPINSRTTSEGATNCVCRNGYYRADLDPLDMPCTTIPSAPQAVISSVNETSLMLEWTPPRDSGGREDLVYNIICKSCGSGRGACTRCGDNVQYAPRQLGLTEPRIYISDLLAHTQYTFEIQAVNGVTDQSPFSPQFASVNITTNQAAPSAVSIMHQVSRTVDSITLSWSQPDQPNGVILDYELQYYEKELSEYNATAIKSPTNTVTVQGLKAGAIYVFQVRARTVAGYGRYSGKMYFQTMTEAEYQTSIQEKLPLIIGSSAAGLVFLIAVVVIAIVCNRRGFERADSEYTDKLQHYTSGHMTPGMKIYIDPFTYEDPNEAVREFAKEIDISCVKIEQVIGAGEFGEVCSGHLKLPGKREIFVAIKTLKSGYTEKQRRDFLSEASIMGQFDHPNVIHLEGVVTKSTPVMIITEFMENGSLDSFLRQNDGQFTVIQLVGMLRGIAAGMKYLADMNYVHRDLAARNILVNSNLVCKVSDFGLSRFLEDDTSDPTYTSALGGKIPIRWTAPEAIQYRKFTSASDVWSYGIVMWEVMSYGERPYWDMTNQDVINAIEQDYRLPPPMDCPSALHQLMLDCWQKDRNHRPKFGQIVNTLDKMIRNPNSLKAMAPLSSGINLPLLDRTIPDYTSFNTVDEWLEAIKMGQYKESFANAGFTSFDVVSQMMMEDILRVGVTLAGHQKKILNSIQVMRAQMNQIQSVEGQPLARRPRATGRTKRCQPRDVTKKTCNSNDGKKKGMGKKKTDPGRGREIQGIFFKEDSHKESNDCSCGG
Fyn, sequence (P06241 whole entry, looked up): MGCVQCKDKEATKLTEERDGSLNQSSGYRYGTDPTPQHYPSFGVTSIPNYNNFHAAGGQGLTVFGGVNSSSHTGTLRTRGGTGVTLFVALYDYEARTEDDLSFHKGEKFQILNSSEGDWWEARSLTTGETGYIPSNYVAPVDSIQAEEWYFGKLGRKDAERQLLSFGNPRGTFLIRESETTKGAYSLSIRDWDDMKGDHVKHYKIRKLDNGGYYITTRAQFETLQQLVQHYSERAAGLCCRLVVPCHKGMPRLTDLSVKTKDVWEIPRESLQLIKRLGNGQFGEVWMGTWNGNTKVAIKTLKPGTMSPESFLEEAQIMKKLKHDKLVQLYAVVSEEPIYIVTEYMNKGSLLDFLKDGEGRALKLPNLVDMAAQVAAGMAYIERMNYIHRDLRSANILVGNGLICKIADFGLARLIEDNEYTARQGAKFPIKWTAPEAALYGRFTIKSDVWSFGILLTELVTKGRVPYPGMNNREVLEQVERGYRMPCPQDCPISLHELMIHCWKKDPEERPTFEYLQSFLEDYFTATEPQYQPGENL
EPHB1, sequence (P54762 whole entry, looked up): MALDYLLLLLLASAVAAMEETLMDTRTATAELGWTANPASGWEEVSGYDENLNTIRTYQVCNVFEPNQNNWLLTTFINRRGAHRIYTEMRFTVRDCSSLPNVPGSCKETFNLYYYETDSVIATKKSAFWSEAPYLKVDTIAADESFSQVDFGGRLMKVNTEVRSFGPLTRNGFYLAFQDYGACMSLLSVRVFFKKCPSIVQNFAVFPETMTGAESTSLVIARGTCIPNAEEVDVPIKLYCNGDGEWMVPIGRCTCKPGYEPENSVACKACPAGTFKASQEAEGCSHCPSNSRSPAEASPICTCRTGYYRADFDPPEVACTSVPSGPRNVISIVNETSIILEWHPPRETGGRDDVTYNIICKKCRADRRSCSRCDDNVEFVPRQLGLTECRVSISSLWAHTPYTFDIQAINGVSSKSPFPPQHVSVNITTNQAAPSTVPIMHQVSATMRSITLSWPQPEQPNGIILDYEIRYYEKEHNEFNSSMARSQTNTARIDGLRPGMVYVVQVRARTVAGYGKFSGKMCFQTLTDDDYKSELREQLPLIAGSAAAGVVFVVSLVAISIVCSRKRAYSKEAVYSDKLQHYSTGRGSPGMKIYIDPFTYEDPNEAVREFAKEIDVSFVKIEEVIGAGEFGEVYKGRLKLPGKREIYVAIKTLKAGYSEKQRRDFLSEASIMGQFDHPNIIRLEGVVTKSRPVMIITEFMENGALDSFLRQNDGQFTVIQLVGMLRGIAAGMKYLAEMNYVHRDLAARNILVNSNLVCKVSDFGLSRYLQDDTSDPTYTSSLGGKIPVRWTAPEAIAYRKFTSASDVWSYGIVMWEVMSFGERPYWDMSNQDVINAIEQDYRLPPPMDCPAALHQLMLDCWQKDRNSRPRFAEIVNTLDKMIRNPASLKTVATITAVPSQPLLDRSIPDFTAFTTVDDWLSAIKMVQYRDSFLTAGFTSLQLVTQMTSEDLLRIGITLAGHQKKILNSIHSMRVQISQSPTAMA
Hck, sequence (P08631 whole entry, looked up): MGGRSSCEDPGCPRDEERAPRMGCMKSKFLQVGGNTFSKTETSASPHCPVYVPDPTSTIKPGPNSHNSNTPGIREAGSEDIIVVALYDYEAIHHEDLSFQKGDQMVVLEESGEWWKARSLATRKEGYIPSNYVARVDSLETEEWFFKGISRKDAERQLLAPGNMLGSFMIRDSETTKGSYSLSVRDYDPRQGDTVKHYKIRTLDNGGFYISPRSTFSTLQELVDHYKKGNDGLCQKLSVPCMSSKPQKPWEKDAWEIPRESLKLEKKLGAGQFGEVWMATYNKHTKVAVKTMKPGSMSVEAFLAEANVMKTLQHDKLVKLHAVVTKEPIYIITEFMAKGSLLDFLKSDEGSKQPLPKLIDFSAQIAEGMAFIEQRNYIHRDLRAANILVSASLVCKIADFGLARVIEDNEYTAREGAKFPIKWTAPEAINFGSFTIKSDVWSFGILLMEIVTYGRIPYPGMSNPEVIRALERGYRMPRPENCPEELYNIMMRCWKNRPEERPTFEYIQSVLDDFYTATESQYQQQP
MERTK, sequence (Q12866 whole entry, looked up): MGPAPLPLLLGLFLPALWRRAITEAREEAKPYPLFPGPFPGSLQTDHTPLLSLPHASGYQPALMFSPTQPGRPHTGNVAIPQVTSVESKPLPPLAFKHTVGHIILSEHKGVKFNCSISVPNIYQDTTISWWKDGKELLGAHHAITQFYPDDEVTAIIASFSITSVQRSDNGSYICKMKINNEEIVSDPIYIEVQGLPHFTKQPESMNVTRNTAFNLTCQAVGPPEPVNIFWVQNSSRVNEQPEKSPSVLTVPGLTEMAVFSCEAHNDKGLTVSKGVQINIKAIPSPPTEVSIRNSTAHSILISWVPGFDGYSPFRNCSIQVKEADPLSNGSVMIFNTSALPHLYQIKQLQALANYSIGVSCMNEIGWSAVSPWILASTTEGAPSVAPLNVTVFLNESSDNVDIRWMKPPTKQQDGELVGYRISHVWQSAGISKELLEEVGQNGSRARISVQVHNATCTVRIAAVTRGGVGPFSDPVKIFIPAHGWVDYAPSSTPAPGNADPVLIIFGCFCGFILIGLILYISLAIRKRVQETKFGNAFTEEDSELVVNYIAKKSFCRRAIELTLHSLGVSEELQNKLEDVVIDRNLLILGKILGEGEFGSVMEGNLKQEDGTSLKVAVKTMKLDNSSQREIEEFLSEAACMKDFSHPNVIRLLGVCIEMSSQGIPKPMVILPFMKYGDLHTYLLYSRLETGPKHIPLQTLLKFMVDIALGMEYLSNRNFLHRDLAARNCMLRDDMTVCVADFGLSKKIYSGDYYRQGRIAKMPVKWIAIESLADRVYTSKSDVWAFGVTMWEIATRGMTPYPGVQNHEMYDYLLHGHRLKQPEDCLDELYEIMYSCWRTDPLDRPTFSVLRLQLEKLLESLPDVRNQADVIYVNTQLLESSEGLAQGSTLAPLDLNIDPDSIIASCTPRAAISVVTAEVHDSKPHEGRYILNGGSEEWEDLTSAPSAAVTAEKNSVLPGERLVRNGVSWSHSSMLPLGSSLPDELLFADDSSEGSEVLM

| SH2 binding enrichment (c-Src SH2) | SH2 binding enrichment (SHP2-C SH2) | SH2 binding enrichment (Grb2 SH2) | Sequence | phosphorylation enrichment (MERTK) | phosphorylation enrichment (EPHB1) | phosphorylation enrichment (c-Src) | phosphorylation enrichment (Fes) | phosphorylation enrichment (Hck) | phosphorylation enrichment (Fyn) | phosphorylation enrichment (Fer (mouse)) | phosphorylation enrichment (EPHB2) | phosphorylation enrichment (FGFR3) | phosphorylation enrichment (AncSZ) | phosphorylation enrichment (c-Abl (mouse)) | phosphorylation enrichment (FGFR1) | phosphorylation enrichment (Jak2) |
| --- | --- | --- | --- | --- | --- | --- | --- | --- | --- | --- | --- | --- | --- | --- | --- | --- |
| 0.792 | 1 | 0.959 | IYHLSYLHNCE [PDE6B_Y227] | 3.92 | 0.778 | 2.56 | 1.54 | 1.75 | 2.63 | 1.28 | 0.764 | 1.74 | 1.46 | 3.41 | 1.95 | 1.26 |
| 0.567 | 0.967 | 0.948 | KAIMIYVSSFF [ACTN4_Y260_T259I_YF] | 0.457 | 0.457 | 0.534 | 1.06 | 0.429 | 0.422 | 0.444 | 0.606 | 0.666 | 0.945 | 0.684 | 0.446 | 0.925 |
| 0.677 | 0.878 | 0.962 | KAIMTYVSSFF [ACTN4_Y260_YF] | 0.494 | 0.57 | 0.592 | 0.821 | 0.531 | 0.559 | 0.437 | 0.602 | 0.647 | 0.911 | 0.527 | 0.533 | 0.561 |
| 2.23 | 3.1 | 1.12 | KALSLYTKLMN [STAM_Y371_E366K] | 0.446 | 0.673 | 0.393 | 1.32 | 0.537 | 0.46 | 0.588 | 0.774 | 0.872 | 1.36 | 0.605 | 0.555 | 1.14 |
| 0.861 | 0.734 | 1.12 | KAVLHYKHQNQ [MTOR_Y1804_E1799K] | 0.366 | 0.423 | 0.366 | 0.863 | 0.449 | 0.36 | 0.469 | 0.328 | 0.629 | 0.6 | 0.891 | 0.427 | 0.622 |
| 0.649 | 0.691 | 0.772 | KDHPDYKFQLR [SOX10_Y171_P175L_YF] | 0.454 | 0.49 | 0.512 | 0.824 | 0.406 | 0.409 | 0.65 | 0.492 | 0.633 | 0.798 | 0.512 | 0.478 | 0.698 |
| 0.503 | 1.02 | 1.02 | KDPPDYKYQPR [SOX9_Y172_H169P] | 0.375 | 0.489 | 0.538 | 0.788 | 0.353 | 0.51 | 0.421 | 0.518 | 0.479 | 0.837 | 0.747 | 0.461 | 0.663 |
| 0.47 | 0.706 | 0.688 | KGEDFYSVTCH [FHL1_Y149_C150S] | 4.71 | 0.806 | 3.96 | 1.35 | 3.19 | 5.87 | 3.47 | 0.632 | 0.942 | 1.47 | 0.899 | 0.849 | 1.13 |
| 0.412 | 0.565 | 0.636 | KGEDFYYVTCH [FHL1_Y149_C150Y] | 1.32 | 0.802 | 0.774 | 1.43 | 0.724 | 0.692 | 0.71 | 0.729 | 1.69 | 1.35 | 1.11 | 1.35 | 1.43 |
| 0.411 | 0.408 | 0.853 | KGEPQYSSHSS [SIPA1L3_Y1265] | 0.429 | 0.327 | 0.496 | 0.547 | 0.295 | 0.554 | 0.45 | 0.317 | 0.421 | 0.515 | 0.498 | 0.298 | 0.57 |
| 0.524 | 0.785 | 0.861 | KGIDRYNPENL [EIF3K_Y21] | 0.414 | 0.349 | 0.358 | 0.736 | 0.384 | 0.42 | 0.372 | 0.446 | 0.564 | 0.583 | 0.456 | 0.493 | 0.449 |
| 0.473 | 0.614 | 0.719 | KGSEGYLAATY [NF1_Y2503] | 0.355 | 0.372 | 0.484 | 0.723 | 0.46 | 0.46 | 0.457 | 0.365 | 0.494 | 0.654 | 0.471 | 0.377 | 0.627 |
| 0.387 | 0.719 | 0.733 | KHMADYPDFKF [SOX11_Y113_YF] | 0.398 | 0.503 | 0.386 | 0.84 | 0.391 | 0.502 | 0.434 | 0.496 | 0.701 | 0.745 | 0.591 | 0.62 | 0.669 |
| 1.81 | 1.9 | 1.67 | KIKGRYEKCEP [KRT26_Y119_W118R] | 0.478 | 0.614 | 0.579 | 1.13 | 0.546 | 0.412 | 0.584 | 0.526 | 1.17 | 0.808 | 1.25 | 0.562 | 1.37 |
| 0.455 | 0.597 | 0.776 | KIMVIYDGACQ [VWDE_Y1035_T1032M] | 0.519 | 1.3 | 0.796 | 1.69 | 1.49 | 0.885 | 0.897 | 1.11 | 1.07 | 1.35 | 0.965 | 0.687 | 1.83 |
| 0.856 | 1.13 | 1.27 | KIVFVYVKKRS [DNAI2_Y7_E2K_YF] | 0.354 | 0.439 | 0.428 | 0.966 | 0.449 | 0.425 | 0.478 | 0.48 | 0.731 | 1.06 | 0.576 | 0.466 | 0.925 |
| 1.88 | 2.1 | 1.99 | KKHIPYREHKS [CSNK1G1_Y205] | 1.03 | 1.84 | 1.46 | 2.94 | 1.19 | 0.888 | 1.81 | 1.25 | 3.18 | 1.76 | 3.25 | 1.31 | 3.87 |

| SH2 binding enrichment (c-Src SH2) | SH2 binding enrichment (SHP2-C SH2) | SH2 binding enrichment (Grb2 SH2) | Sequence | phosphorylation enrichment (MERTK) | phosphorylation enrichment (EPHB1) | phosphorylation enrichment (c-Src) | phosphorylation enrichment (Fes) | phosphorylation enrichment (Hck) | phosphorylation enrichment (Fyn) | phosphorylation enrichment (Fer (mouse)) | phosphorylation enrichment (EPHB2) | phosphorylation enrichment (FGFR3) | phosphorylation enrichment (AncSZ) | phosphorylation enrichment (c-Abl (mouse)) | phosphorylation enrichment (FGFR1) | phosphorylation enrichment (Jak2) |
| --- | --- | --- | --- | --- | --- | --- | --- | --- | --- | --- | --- | --- | --- | --- | --- | --- |
| 1.32 | 1.2 | 1.67 | KKIMGYSIRTI [IDS_Y490_I485K] | 0.366 | 0.41 | 0.364 | 0.571 | 0.387 | 0.304 | 0.394 | 0.405 | 0.332 | 0.625 | 0.538 | 0.392 | 0.537 |
| 0.482 | 0.561 | 0.849 | KLIETCFSKNF [PLP1_Y50_Y50C_YF] | 0.405 | 0.581 | 0.476 | 1.23 | 0.492 | 0.413 | 0.504 | 0.523 | 0.725 | 1.14 | 0.826 | 0.47 | 1.06 |
| 0.573 | 0.734 | 0.934 | KLNNEHLELNY [MME_Y497_Y497H] | 0.395 | 0.402 | 0.417 | 0.768 | 0.421 | 0.471 | 0.445 | 0.452 | 0.517 | 0.775 | 0.58 | 0.437 | 0.619 |
| 1.26 | 1.12 | 1.37 | KLQQWYREHRS [GPI_Y17] | 0.355 | 0.37 | 0.384 | 0.613 | 0.44 | 0.382 | 0.392 | 0.399 | 0.475 | 0.6 | 0.548 | 0.434 | 0.567 |
| 0.573 | 0.772 | 0.832 | KLSHLYQDHMQ [WNT5A_Y86_C83S] | 0.437 | 0.462 | 0.406 | 0.844 | 0.455 | 0.442 | 0.647 | 0.579 | 0.703 | 0.794 | 0.616 | 0.439 | 0.712 |
| 0.764 | 0.832 | 1.44 | KLVDVYVNDAF [PGK1_Y161_G158V] | 0.425 | 0.575 | 0.435 | 0.81 | 0.554 | 0.574 | 0.496 | 0.5 | 0.626 | 0.895 | 0.387 | 0.635 | 0.661 |
| 0.464 | 0.59 | 1.08 | KMATAYIRSMS [BCO1_Y264_R267S] | 0.396 | 0.409 | 0.385 | 0.6 | 0.388 | 0.417 | 0.337 | 0.374 | 0.369 | 0.564 | 0.516 | 0.397 | 0.518 |
| 1.75 | 1.07 | 1.36 | KMTGRYEMFAR [UPB1_Y362_YF] | 0.633 | 0.496 | 0.451 | 0.815 | 0.505 | 0.386 | 0.438 | 0.556 | 0.53 | 0.808 | 0.571 | 0.499 | 0.586 |
| 0.728 | 0.719 | 0.977 | KPPPTYESEEE [BRD4_Y599] | 0.552 | 0.653 | 0.767 | 1.88 | 0.641 | 0.664 | 0.753 | 0.711 | 0.775 | 1.65 | 1.18 | 0.618 | 1.39 |
| 0.422 | 0.693 | 0.83 | KPVDTYFDSTR [DYNC2H1_Y2230_M2227V_YF] | 0.54 | 0.668 | 0.43 | 0.997 | 0.565 | 0.567 | 0.472 | 0.556 | 0.73 | 0.925 | 0.611 | 0.624 | 0.723 |
| 0.471 | 0.505 | 0.811 | KQELVYPNKKL [OPTN_Y356_T357P] | 0.374 | 0.33 | 0.349 | 0.743 | 0.293 | 0.324 | 0.323 | 0.358 | 0.417 | 0.576 | 0.561 | 0.356 | 0.443 |
| 0.899 | 0.972 | 1.09 | KQFWRYFAGNL [SLC25A4_Y112] | 0.542 | 0.777 | 0.507 | 1.03 | 0.449 | 0.32 | 0.488 | 0.53 | 0.598 | 0.944 | 0.764 | 0.461 | 1.04 |
| 0.549 | 0.885 | 0.973 | KREPQYSSHSS [SIPA1L3_Y1265_G1261R] | 0.452 | 0.423 | 0.506 | 0.629 | 0.362 | 0.338 | 0.401 | 0.306 | 0.376 | 0.559 | 0.486 | 0.377 | 0.43 |
| 0.613 | 0.674 | 0.803 | KSFDMYSGDVM [FAM3D_Y122_A118S] | 0.914 | 1.6 | 1.1 | 0.856 | 1.13 | 1.06 | 0.589 | 1.22 | 0.667 | 0.998 | 0.609 | 0.654 | 0.698 |
| 0.865 | 0.973 | 1.33 | KTTILYKLKLG [ARF1_Y35] | 0.376 | 0.41 | 0.336 | 1 | 0.401 | 0.358 | 0.426 | 0.411 | 0.688 | 1.01 | 0.719 | 0.404 | 0.909 |
| 0.645 | 0.906 | 0.948 | KVASVYEAPGF [NT5C_Y65] | 2.59 | 3.77 | 5.05 | 0.903 | 9.28 | 7.05 | 6.87 | 5.62 | 0.583 | 0.973 | 9.41 | 0.481 | 0.609 |
